# Data published in PMC2879449 (Biochemistry, 2010).
# B1: WlbB, an N-acetyltransferase from Bordetella petrii (enzyme, UniProt A9IH93 1-190, looked up)
# chain: MATIHPTAIVDEGARIGAHSRIWHWVHICGGAEIGEGCSLGQNVFVGNRVRIGNRVKIQNNVSVYDNVFLEDDVFCGPSMVFTNVYNPRAAIERKSEYRDTIVRQGATLGANCTVVCGATIGRYAFVGAGAVVNKDVPDFALVVGVPARQIGWMSRHGEQLDLPLRGNAEATCPHTGERYILTDGVCRLA
# Molecular target: the molecule itself
# Test: crystal structure
protein,measurement,value
B1,stoichiometry N,3
